Reference: EP3494999A1, “PSMA LIGANDS FOR IMAGING AND ENDORADIOTHERAPY” (Technische Universität München, priority 2017, dated 2019)
Square brackets hold non-standard residues; d marks the D form. Peptide text beside a SMILES is read from it. * marks the point of attachment. X1 = O=C(O)CC[C@H](NC(=O)N[C@@H](CCCCNC(=O)CCCCCCC(=O)*)C(=O)O)C(=O)O; DOTAGA = O=C(O)CN1CCN(CC(=O)O)CCN(C(CCC(=O)*)C(=O)O)CCN(CC(=O)O)CC1; dPhe(4-NH2) = Nc1ccc(C[C@@H](N)C(=O)O)cc1; dTyr(3-I) = N[C@H](Cc1ccc(O)c(I)c1)C(=O)O; Phe(4-NH2) = Nc1ccc(C[C@H](N)C(=O)O)cc1; d2Nal = N[C@H](Cc1ccc2ccccc2c1)C(=O)O

Assays:
[1] = format: physicochemical
Experimental: To a volume of 500 µL n-octanol, 0.5 to 1.0 MBq of the radiolabeled PSMA inhibitor in 500 µL PBS (pH = 7.4) was added and rigorously vortexted for 3 min (n = 6). For quantitative phase separation, the mixture was centrifuged at 6,000 g for 5 min (Biofuge 15, Heraus Sepatech, Osterode, Germany).

[2] = design: species or system SCID mice; conditions: mouse, in vivo
Experimental: (§1) All animal experiments were carried out in accordance with the general animal welfare regulations in Germany (Deutsches Tierschutzgesetz, approval #55.2-1-54-2532-71-13). For the tumor model, LNCaP cells (approx. 10^7 cells) were suspended 1:1 in serum-free DMEM-F12 medium and Matrigel (BD Biosciences, Germany) and inoculated onto the right shoulder of male, 6 to 8 weeks old CB-17 SCID mice (Charles River Laboratories, Sulzfeld, Germany). Animals were used after the tumor size reached 4 to 8 mm in diameter for experiments.
Imaging experiments were conducted using a Siemens Inveon small animal PET and data analyzed by the associated Inveon Research Workplace software. Mice were anaesthetised with isoflurane and the ^68Ga-radiolabeled PSMA inhibitors (0.2 nmol, 7.0 to 12 MBq) were injected via tail vein. Dynamic imaging was carried out after on-bed injection for 90 min. The static blockade image was obtained, after 1 h p.i. with 15 min acquisition time. Blockade was done by coinjection of 8mg/kg of PMPA. All images were reconstructed using an OSEM3D algorithm without […] and attenuation correction.

[3] = target: T1, human serum albumin (HSA) (Homo sapiens, UniProt P02768); format: in vitro ADME
T1 construct: purchased Daicel Chemical Industries, purchased from Chiral Technologies Europe (France)
Description: The Fmoc-(9-fluorenylmethoxycarbonyl-) and all other protected amino acid analogs were purchased from Bachem (Bubendorf, Switzerland) or Iris Biotech (Marktredwitz, Germany). […] The tritylchloride polystyrene (TCP) resin was obtained from PepChem (Tubingen, Germany). Chematech (Dijon, France) delivered the chelator DOTAGA-anhydride. All necessary solvents and other organic reagents were purchased from either Alfa Aesar (Karlsruhe, Germany), Sigma-Aldrich (Munich, Germany) or VWR (Darmstadt, Germany). Solid phase synthesis of the peptides was carried out by manual operation using an Intelli-Mixer syringe shaker (Neolab, Heidelberg, Germany). […] Analysis of the peptides was performed by applying different gradients of 0.1% (v/v) trifluoroacetic acid (TFA) in H2O (solvent A) and 0.1% TFA (v/v) in acetonitrile (MeCN) (solvent B) with a constant flow of 1 mL/min (specific gradients are cited in the text). […] Human serum albumin (HSA) binding was determined using a Chiralpak HSA 50 x 3 mm 5µm Analytical Column connected to a Chiralpak HSA 10 x 3 mm 5µm Guard Cartridge (Daicel Chemical Industries) purchased from Chiral Technologies Europe (France). Nonlinear regression for the HSA binding was performed using OriginPro 2016G. Both retention times tR as well as the capacity factors K' are cited in the text. […] Radioactivity was detected through connection of the outlet of the UV-photometer to a Nal(TI) well-type scintillation counter from EG&G Ortec (Munich, Germany). […] ESI-mass spectra were acquired on an expression^L CMS mass spectrometer (Advion Ltd., Harlow, UK) and on a Varian 500-MS IT mass spectrometer (Agilent Technologies, Santa Clara, USA). For the HSA binding experiment a Chiralpak HSA 50 x 3 mm 5µm Analytical Column, (Daicel Chemical Industries, LTD) connected to a Chiralpak HSA 10 x 3 mm 5µm Guard Cartridge (Daicel Chemical Industries; Chiral Technologies Europe) was used.
The mobile phase was freshly prepared for each experiment and only used for one day. The column was kept at room temperature and each run was stopped after detection of the signal to reduce the acquisition time. All substances were dissolved in a 0.5mg/ml concentration in 50% 2-Propanol and 50% 50mM pH 6.9 ammonium acetate buffer. […] All nine reference substances were injected consecutively to establish a non-linear regression with OriginPro 2016G. […] Table 1: Reference substances used for the calibration of the HSA-column.

LNCaP xenograft = test system: LNCaP xenograft; design: species or system SCID mice; conditions: mouse, in vivo
Experimental: as §1

T1 sequence (P02768 25-609): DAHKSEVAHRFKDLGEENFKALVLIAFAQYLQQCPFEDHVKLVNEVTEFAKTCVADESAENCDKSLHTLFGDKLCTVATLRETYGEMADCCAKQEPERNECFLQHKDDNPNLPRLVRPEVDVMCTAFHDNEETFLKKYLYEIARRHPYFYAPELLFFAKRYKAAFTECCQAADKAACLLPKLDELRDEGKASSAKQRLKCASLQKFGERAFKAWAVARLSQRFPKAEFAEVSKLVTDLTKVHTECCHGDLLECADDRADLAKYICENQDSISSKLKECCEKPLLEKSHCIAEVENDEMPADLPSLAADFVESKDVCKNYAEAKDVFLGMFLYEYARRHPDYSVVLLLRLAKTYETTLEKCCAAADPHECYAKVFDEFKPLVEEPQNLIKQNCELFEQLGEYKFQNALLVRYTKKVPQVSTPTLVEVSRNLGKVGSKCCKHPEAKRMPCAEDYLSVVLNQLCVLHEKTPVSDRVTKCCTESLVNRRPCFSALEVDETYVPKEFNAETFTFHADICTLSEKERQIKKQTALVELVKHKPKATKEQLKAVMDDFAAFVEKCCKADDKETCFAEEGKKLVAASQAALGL

SMILES | logP [1] | kidney clearance [2] | HSA [%] [3] | Increased tumor uptake (LNCaP xenograft)
Nc1ccc(C[C@@H](NC(=O)CCC(C(=O)O)N2CCN(CC(=O)O)CCN(CC(=O)O)CCN(CC(=O)O)CC2)C(=O)N[C@H](Cc2ccc(O)c(I)c2)C(=O)N[C@H](Cc2ccccc2)C(=O)N[C@H](CCCCNC(=O)CCCCCCC(=O)NCCCC[C@H](NC(=O)N[C@@H](CCC(=O)O)C(=O)O)C(=O)O)C(=O)O)cc1 (stereo partly drawn) [[^nat/177Lu]PSMA-2, DOTAGA-(4-NH2)f-(l-y)-f-k-KuE, metal not drawn] ({DOTAGA}-[dPhe(4-NH2)][dTyr(3-I)][dF][dK](X1)-OH) | -4.11 ± 0.06 | accelerated kidney clearance | 82.5% | –
Nc1ccc(C[C@H](NC(=O)CCC(C(=O)O)N2CCN(CC(=O)O)CCN(CC(=O)O)CCN(CC(=O)O)CC2)C(=O)N[C@H](Cc2ccc(O)c(I)c2)C(=O)N[C@H](Cc2ccccc2)C(=O)N[C@H](CCCCNC(=O)CCCCCCC(=O)NCCCC[C@H](NC(=O)N[C@@H](CCC(=O)O)C(=O)O)C(=O)O)C(=O)O)cc1 (stereo partly drawn) [[^nat/177Lu]PSMA-3, DOTAGA-(4-NH2)F-(l-y)-f-k-KuE, metal not drawn] ({DOTAGA}-[Phe(4-NH2)][dTyr(3-I)][dF][dK](X1)-OH) | – | – | 91.9% | about 200%
O=C(O)CC[C@H](NC(=O)N[C@@H](CCCCNC(=O)CCCCCCC(=O)NCCCC[C@@H](NC(=O)[C@@H](Cc1ccc2ccccc2c1)NC(=O)[C@@H](Cc1ccc(O)cc1)NC(=O)CCC(C(=O)O)N1CCN(CC(=O)O)CCN(CC(=O)O)CCN(CC(=O)O)CC1)C(=O)O)C(=O)O)C(=O)O (stereo partly shown) [[^nat/177Lu]PSMA-4, DOTAGA-y-nal-k-KuE, metal not drawn, reference compound] | -4.11 ± 0.06 | – | 82.6% | –
Nc1ccc(C[C@H](NC(=O)CCC(C(=O)O)N2CCN(CC(=O)O)CCN(CC(=O)O)CCN(CC(=O)O)CC2)C(=O)N[C@H](Cc2ccc(O)cc2)C(=O)N[C@H](Cc2ccc3ccccc3c2)C(=O)N[C@H](CCCCNC(=O)CCCCCCC(=O)NCCCC[C@H](NC(=O)N[C@@H](CCC(=O)O)C(=O)O)C(=O)O)C(=O)O)cc1 (stereo partly shown) [[^nat/177Lu]PSMA-6, DOTAGA-(4-NH2)F-y-nal-k-KuE, metal not drawn] ({DOTAGA}-[Phe(4-NH2)][dY][d2Nal][dK](X1)-OH) | – | – | 83.17% | –
O=C(O)CC[C@H](NC(=O)N[C@@H](CCCCNC(=O)[C@@H](Cc1ccc(I)cc1)NC(=O)CCCC(=O)NCCCC[C@@H](NC(=O)[C@@H](Cc1ccc2ccccc2c1)NC(=O)[C@@H](Cc1ccc(O)cc1)NC(=O)CCC(C(=O)O)N1CCN(CC(=O)O)CCN(CC(=O)O)CCN(CC(=O)O)CC1)C(=O)O)C(=O)O)C(=O)O (stereo partly drawn) [[^nat/177Lu]PSMA-10, DOTAGA-y-nal-k(Glut-(l-f)-KuE), metal not drawn, reference compound] | -3.05 ± 0.02 | – | 96.61% | –
